These results are taken from article doi:10.1101/731679, “Structural insights into the mechanism of the human soluble guanylate cyclase” (bioRxiv, 2019).

Test [1] addresses T1, cys-less human sGC α1 subunit with L275C (α1^CL L275C), C-terminal GFP-strep (human, UniProt Q02108 64-690, C176A | C239A | C669S | C455Y | C460G | L275C).
T1 construct: soluble guanylate cyclase α1 subunit, human; the cys-rich N-terminal 63 amino acids removed; cys-less background plus L275C; also called α1 L275C; source: HEK293F, transfected (BacMam vector), purified with β1 on Streptactin Beads 4FF; not shown: GFP, C-terminal, kept; strep, C-terminal, kept
T1 sequence (looked up): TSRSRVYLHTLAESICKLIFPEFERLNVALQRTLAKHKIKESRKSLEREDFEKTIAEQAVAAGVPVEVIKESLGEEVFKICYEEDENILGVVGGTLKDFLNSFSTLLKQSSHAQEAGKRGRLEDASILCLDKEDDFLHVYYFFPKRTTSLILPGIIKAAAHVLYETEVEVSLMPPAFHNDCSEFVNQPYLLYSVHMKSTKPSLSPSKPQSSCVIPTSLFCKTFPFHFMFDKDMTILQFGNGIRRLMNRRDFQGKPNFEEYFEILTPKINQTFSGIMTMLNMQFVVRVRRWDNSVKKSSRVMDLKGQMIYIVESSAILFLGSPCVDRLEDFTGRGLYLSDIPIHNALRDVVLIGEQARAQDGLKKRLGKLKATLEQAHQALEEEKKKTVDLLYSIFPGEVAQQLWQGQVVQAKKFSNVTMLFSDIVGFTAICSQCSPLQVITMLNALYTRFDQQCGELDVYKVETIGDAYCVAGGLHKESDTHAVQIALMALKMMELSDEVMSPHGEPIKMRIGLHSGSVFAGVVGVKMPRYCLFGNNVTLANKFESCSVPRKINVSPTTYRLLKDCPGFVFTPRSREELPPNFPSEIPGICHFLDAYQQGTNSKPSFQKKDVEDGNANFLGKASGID
Nature of the test: cross-linking; disulfide cross-linking of Streptactin-purified cys-less sGC with 0.1 mM Cu(II)(1,10-phenanthroline)3 on ice for 30 min; SDS-PAGE non-reducing or reducing (100 mM DTT); in-gel GFP fluorescence of α1. The conditions noted are these: both partners purified.

In test [2] the target is T2, cys-less human sGC α1 subunit with L425C (α1^CL L425C), C-terminal GFP-strep (human, UniProt Q02108 64-690, C176A | C239A | C669S | C455Y | C460G | L425C).
T2 construct: soluble guanylate cyclase α1 subunit, human; the cys-rich N-terminal 63 amino acids removed; cys-less background plus L425C; also called α1 L425C; source: HEK293F, transfected (BacMam vector), purified with β1 on Streptactin Beads 4FF; not shown: GFP, C-terminal, kept; strep, C-terminal, kept
T2 sequence (looked up): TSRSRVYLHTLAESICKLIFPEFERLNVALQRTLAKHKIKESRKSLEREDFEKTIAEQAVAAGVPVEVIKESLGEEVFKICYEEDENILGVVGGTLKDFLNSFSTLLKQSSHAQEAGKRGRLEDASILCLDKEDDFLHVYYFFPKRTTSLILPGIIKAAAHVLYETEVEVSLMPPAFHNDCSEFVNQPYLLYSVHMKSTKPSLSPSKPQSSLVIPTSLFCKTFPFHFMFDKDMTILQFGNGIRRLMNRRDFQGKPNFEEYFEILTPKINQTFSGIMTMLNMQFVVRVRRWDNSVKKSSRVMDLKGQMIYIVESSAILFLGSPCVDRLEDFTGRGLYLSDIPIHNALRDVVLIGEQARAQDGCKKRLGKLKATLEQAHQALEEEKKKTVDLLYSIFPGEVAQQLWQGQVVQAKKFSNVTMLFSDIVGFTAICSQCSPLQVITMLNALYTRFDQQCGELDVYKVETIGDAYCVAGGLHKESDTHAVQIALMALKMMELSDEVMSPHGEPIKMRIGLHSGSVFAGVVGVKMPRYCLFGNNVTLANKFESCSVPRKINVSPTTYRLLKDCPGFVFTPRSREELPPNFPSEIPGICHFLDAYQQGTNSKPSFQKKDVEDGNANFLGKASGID
Described as above. The conditions noted are these: both partners purified.

B1: cys-less human sGC β1 subunit with A316C (β1^CL A316C), without tags (natural protein, UniProt Q02153 1-619, looked up)
chain: MYGFVNHALELLVIRNYGPEVWEDIKKEAQLDEEGQFLVRIIYDDSKTYDLVAAASKVLNLNAGEILQMFGKMFFVFCQESGYDTILRVLGSNVREFLQNLDALHDHLATIYPGMRAPSFRCTDAEKGKGLILHYYSEREGLQDIVIGIIKTVAQQIHGTEIDMKVIQQRNEECDHTQFLIEEKESKEEDFYEDLDRFEENGTQESRISPYTFCKAFPFHIIFDRDLVVTQCGNAIYRVLPQLQPGNCSLLSVFSLVRPHIDISFHGILSHINTVFVLRSKEGLLDVEKLENEDELTGTEISCLRLKGQMIYLPECDSILFLCSPSVMNLDDLTRRGLYLSDIPLHDATRDLVLLGEQFREEYKLTQELEILTDRLQLTLRALEDEKKKTDTLLYSVLPPSVANELRHKRPVPAKRYDNVTILFSGIVGFNAFCSKHASGEGAMKIVNLLNDLYTRFDTLTDSRKNPFVYKVETVGDKYMTVSGLPEPCIHHARSICHLALDMMEIAGQVQVDGESVQITIGIHTGEVVTGVIGQRMPRYCLFGNTVNLTSRTETTGEKGKINVSEYTYRCLMSPENSDPQFHLEHRGPVSMKGKKEPMQVWFLSRKNTGTEETKQDDD
notes: soluble guanylate cyclase β1 subunit, human; cys-less background (C292N) plus A316C; The PDB entries are of the wild-type parent; also called β1 A316C; source: HEK293F, transfected (BacMam vector), purified with α1 on Streptactin Beads 4FF
For the molecule B1, the binding result in test [1] is reported as “binds”.

B2: cys-less human sGC β1 subunit with L365C (β1^CL L365C), without tags (natural protein, UniProt Q02153 1-619, looked up)
chain: MYGFVNHALELLVIRNYGPEVWEDIKKEAQLDEEGQFLVRIIYDDSKTYDLVAAASKVLNLNAGEILQMFGKMFFVFCQESGYDTILRVLGSNVREFLQNLDALHDHLATIYPGMRAPSFRCTDAEKGKGLILHYYSEREGLQDIVIGIIKTVAQQIHGTEIDMKVIQQRNEECDHTQFLIEEKESKEEDFYEDLDRFEENGTQESRISPYTFCKAFPFHIIFDRDLVVTQCGNAIYRVLPQLQPGNCSLLSVFSLVRPHIDISFHGILSHINTVFVLRSKEGLLDVEKLENEDELTGTEISCLRLKGQMIYLPEADSILFLCSPSVMNLDDLTRRGLYLSDIPLHDATRDLVLLGEQFREEYKCTQELEILTDRLQLTLRALEDEKKKTDTLLYSVLPPSVANELRHKRPVPAKRYDNVTILFSGIVGFNAFCSKHASGEGAMKIVNLLNDLYTRFDTLTDSRKNPFVYKVETVGDKYMTVSGLPEPCIHHARSICHLALDMMEIAGQVQVDGESVQITIGIHTGEVVTGVIGQRMPRYCLFGNTVNLTSRTETTGEKGKINVSEYTYRCLMSPENSDPQFHLEHRGPVSMKGKKEPMQVWFLSRKNTGTEETKQDDD
notes: soluble guanylate cyclase β1 subunit, human; cys-less background (C292N) plus L365C; The PDB entries are of the wild-type parent; also called β1 L365C; source: HEK293F, transfected (BacMam vector), purified with α1 on Streptactin Beads 4FF
Regarding B2, in test [2], the binding result is reported as “binds”.
